{
  "source": "patent US7172865B2",
  "about": "“Rapid and sensitive assay for the detection and quantification of coregulators of nucleic acid binding factors” (Saint Louis University, priority 2001, dated 2007)",
  "molecules": {"B1": {"name": "CAP: bacterial transcription activator from E. coli which binds DNA in a sequence specific, cAMP-dependent manner (protein, UniProt P0ACJ8 2-210, looked up)", "DNA-binding transcriptional …": "VLGKPQTDPTLEWFLSHCHIHKYPSKSTLIHQGEKAETLYYIVKGSVAVLIKDEEGKEMILSYLNQGDFIGELGLFEEGQERSAWVRAKTACEVAEISYKKFRQLIQVNPDILMRLSAQMARRLQVTSEKVGNLAFLDVTGRIAQTLLNLAKQPDAMTHPDGMQIKITRQEIGQIVGCSRETVGRILKMLEDQNLISAHGKTIVVYGTR"}},
  "molecular_target": "CAP protein (Escherichia coli, UniProt P0ACJ8)",
  "conditions": "in the absence of cAMP",
  "data": [
    {"molecule": "B1", "values": [
      {"measurement": "CAP binding to the CAP1/CAP4 and CAP2/CAP3 DNA duplex", "result": "No detectable binding"}
    ]}
  ]
}
